Measured values from patent US20240002479A1 (REGENTS OF THE UNIVERSITY OF MICHIGAN, published 2024).

B1: anti-DENV NS1 IgG2b mouse monoclonal antibody (mAb) 2B7 (antibody, V domains shown)
VH: EVQLQQSGPELVKPGASVKMSCKASGCTLTNCFMHWMKQKPGQDLEWIGYINPYNDMTKYSENFKGKATLTSDKSSSTAFMELSSLTSEDSAVYYCARGYLLRTGCFDYWGQGTTLTVSS
VL: NIVLTQSPASLAVSLGQRATISCRASESVDSYGYSFMHWYQQKPGQPPKVLIYLASNLESGVPARFSGSGSRTDFTLTIDPVEADDAATYYCQQNNENPLTFGAGTKLELKR
B2: 2B7 Fab (Fab, V domains shown)
VH: B1 VH
VL: NIVLTQSPASLAVSLGQRATISCRASESVDSYGYSFMHWYQQKPGQPPKVLIYLASNLESGVPARFSGSGSRTDFTLTIDPVEADDAATYYCQQNNENPLTFGAGTKLELK

Legend:
[1] = target: T1, JEV NS1 (Japanese encephalitis virus NS1) (Japanese encephalitis virus, UniProt P0DOH7 795-1146); experiment: ELISA, 2B7 titrated on JEV NS1, OD450nm
T1 sequence: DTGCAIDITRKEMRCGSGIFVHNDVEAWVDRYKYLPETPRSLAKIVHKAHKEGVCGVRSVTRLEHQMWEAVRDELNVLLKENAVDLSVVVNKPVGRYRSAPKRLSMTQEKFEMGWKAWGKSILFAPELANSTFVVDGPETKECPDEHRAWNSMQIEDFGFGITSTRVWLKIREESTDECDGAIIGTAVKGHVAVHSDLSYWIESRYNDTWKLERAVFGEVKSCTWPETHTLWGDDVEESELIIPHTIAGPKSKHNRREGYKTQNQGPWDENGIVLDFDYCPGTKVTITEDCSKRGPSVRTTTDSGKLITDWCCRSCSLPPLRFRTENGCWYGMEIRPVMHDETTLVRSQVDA

[2] = target: T2, SLEV NS1 (Saint Louis encephalitis virus NS1) (Saint Louis encephalitis virus, UniProt P09732 790-1141); experiment: ELISA, 2B7 titrated on SLEV NS1, OD450nm
T2 sequence: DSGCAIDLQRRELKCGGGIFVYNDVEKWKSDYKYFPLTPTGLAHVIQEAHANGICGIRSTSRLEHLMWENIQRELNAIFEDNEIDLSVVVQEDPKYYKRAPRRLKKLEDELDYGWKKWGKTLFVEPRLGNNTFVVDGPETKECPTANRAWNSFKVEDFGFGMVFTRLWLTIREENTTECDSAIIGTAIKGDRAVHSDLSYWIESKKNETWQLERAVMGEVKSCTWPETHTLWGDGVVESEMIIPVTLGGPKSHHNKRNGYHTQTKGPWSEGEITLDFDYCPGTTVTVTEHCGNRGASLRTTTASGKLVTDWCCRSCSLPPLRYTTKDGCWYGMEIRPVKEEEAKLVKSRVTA

[3] = target: T3, USUV NS1 (Usutu virus NS1) (Usutu virus, UniProt Q5WPU5 794-1145); experiment: ELISA, 2B7 titrated on USUV NS1, OD450nm
T3 chain: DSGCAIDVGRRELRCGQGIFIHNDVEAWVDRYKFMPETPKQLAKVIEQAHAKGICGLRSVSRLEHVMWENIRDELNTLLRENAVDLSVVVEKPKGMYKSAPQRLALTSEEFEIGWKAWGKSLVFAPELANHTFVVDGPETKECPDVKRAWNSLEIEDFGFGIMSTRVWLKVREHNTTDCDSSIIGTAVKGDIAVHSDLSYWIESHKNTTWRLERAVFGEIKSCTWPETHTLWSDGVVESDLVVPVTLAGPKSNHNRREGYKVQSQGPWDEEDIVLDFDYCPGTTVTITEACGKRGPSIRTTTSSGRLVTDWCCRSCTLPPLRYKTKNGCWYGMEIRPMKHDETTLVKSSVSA

[4] = target: T4, WSLV NS1 (Wesselsbron virus NS1) (Wesselsbron virus, UniProt C5H431 771-1123); experiment: ELISA, 2B7 titrated on WSLV NS1, OD450nm
T4 sequence: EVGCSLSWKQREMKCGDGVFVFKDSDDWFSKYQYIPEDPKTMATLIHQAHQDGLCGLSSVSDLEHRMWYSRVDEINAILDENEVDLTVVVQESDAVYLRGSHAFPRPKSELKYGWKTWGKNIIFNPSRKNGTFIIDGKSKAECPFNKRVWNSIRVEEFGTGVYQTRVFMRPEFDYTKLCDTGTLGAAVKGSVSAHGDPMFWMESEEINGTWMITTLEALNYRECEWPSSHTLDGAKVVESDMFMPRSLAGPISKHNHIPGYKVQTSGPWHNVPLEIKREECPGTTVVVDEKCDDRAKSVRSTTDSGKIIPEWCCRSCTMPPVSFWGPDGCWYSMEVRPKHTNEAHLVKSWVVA

DENV1 NS1 [5] = target: T5, DENV1 NS1 (Dengue virus 1, UniProt P17763 776-1127); experiment: ELISA, 2B7 titrated on DENV1 NS1, OD450nm
T5 construct: also called dengue virus serotype 1 NS1
T5 chain: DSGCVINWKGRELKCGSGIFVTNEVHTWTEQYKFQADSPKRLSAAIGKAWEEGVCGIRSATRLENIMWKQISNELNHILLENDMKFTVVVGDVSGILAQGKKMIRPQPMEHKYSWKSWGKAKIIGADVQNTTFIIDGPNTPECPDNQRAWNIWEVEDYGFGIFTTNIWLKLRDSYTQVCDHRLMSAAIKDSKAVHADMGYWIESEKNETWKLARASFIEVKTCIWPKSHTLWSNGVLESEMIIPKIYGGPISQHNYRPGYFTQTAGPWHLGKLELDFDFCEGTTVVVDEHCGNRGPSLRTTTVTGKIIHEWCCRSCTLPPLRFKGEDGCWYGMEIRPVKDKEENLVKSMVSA

DENV3 NS1 = target: T6, DENV3 NS1 (Dengue virus 3, UniProt Q6YMS4 774-1125); experiment: ELISA, 2B7 titrated on DENV3 NS1, OD450nm
T6 sequence: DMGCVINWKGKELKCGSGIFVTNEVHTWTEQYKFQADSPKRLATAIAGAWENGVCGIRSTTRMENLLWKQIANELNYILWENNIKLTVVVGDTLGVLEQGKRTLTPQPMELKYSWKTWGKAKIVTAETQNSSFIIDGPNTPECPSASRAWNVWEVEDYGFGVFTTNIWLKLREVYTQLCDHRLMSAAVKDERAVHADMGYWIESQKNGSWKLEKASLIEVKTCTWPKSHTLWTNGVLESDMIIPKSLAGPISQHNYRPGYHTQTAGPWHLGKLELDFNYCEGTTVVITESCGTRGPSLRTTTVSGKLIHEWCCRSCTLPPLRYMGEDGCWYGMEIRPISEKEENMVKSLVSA

DENV4 NS1 = target: T7, DENV4 NS1 (Dengue virus 4, UniProt P09866 775-1126); experiment: ELISA, 2B7 titrated on DENV4 NS1, OD450nm
T7 sequence: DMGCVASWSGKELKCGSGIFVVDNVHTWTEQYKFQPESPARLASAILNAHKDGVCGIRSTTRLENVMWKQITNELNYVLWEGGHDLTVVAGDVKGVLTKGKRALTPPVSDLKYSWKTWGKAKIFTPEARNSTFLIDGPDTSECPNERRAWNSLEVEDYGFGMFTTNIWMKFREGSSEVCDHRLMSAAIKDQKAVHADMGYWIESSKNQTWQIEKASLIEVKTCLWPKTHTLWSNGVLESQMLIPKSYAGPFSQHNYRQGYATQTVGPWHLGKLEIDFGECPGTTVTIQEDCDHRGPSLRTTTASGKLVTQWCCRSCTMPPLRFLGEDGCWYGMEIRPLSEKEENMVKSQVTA

[6] = target: T8, recombinant NS1 wing domain (residues 38-151) (Dengue virus 2, UniProt P07564 813-926); experiment: direct ELISA on plates coated with recombinant NS1 domains, OD 405 nm
T8 sequence: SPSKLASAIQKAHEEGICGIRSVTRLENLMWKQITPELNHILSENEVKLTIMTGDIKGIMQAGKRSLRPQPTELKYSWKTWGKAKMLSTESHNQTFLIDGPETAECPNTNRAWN

DENV1 NS1 [7] = target: T5, DENV1 NS1; experiment: crystal structure 3.3 Å
[8] = target: T8, recombinant NS1 wing domain (residues …); experiment: BLI, domains on anti-His tips

Row | Binder | binding result [1] | binding result [2] | binding result [3] | binding result [4] | binding result (DENV1 NS1 [5]) | binding result (DENV3 NS1) | binding result (DENV4 NS1) | binding result [6] | binding result (DENV1 NS1 [7]) | binding result [8]
1 | B1 | binds | binds | binds | binds | binds | binds | binds | no binding | – | –
2 | B2 | – | – | – | – | – | – | – | – | binds | no binding
